# Assay results taken from patent US6583108B1, “Human bikunin” (Bayer Corporation, dated 2003).
# Where two headings read alike, the source gives them in different places.
# B1: placental bikunin 101-159 expressed in yeast (construct #3) (protein)
# chain: NYEEYCTANAVTGPCRASFPRWYFDVERNSCNNFIYGGCRGNKNSYRSEEACMLRCFRQ
# B2: native human placental bikunin isolated from human placenta (protein)
# chain: ADRERSIHDFCLVSKVVGRCRASMPRWWYNVTDGSCQLFVYGGCDGNSNNYLTKEECLKKCATVTENATGDLATSRNAADSSVPSAPRRQDSEDHSSDMFNYEEYCTANAVTGPCRASFPRWYFDVERNSCNNFIYGGCRGNKNSYRSEEACMLRCFRQQENPPLPLGSK
# modifications: probably glycosylated at the asparagine residue at position 30
# B3: recombinant placental bikunin (1-170) from baculovirus/Sf9 expression (protein)
# chain: ADRERSIHDFCLVSKVVGRCRASMPRWWYNVTDGSCQLFVYGGCDGNSNNYLTKEECLKKCATVTENATGDLATSRNAADSSVPSAPRRQDSEDHSSDMFNYEEYCTANAVTGPCRASFPRWYFDVERNSCNNFIYGGCRGNKNSYRSEEACMLRCFRQQENPPLPLGSK
# modifications: probably glycosylated at the asparagine residue at position 30
# B4: placental bikunin 98-159 expressed in yeast (construct #4) (protein)
# chain: DMFNYEEYCTANAVTGPCRASFPRWYFDVERNSCNNFIYGGCRGNKNSYRSEEACMLRCFRQ
# B5: synthetic placental bikunin (7-64) (other)
# chain: IHDFCLVSKVVGRCRASMPRWWYNVTDGSCQLFVYGGCDGNSNNYLTKEECLKKCATV
# Experiments:
# [1] = target: Factor XIIa; assay: enzyme inhibition kinetics; first preparation of bikunin (7-64)
# [2] = target: bovine trypsin (bovine) (UniProt P00760)
# Sequence of bovine trypsin (bovine) (P00760 24-246): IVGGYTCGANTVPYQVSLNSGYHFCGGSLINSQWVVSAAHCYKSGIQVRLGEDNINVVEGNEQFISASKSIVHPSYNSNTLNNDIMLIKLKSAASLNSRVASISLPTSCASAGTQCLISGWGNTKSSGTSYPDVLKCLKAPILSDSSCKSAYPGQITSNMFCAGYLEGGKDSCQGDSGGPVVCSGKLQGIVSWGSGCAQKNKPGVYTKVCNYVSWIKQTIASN
# [3] = target: Factor XIa; assay: enzyme inhibition kinetics
# [4] = target: Factor XIa; assay: enzyme inhibition kinetics, E(OBz)AR-AMC substrate
# [5] = target: bovine trypsin (bovine) (UniProt P00760); remark: listed apart in the source
# [6] = target: bovine trypsin (bovine) (UniProt P00760); remark: listed apart in the source
# [7] = target: bovine trypsin (bovine) (UniProt P00760); remark: listed apart in the source
# [8] = target: bovine pancreatic kallikrein (bovine); assay: enzyme inhibition kinetics; Sf9-derived bikunin (1-170)
# [9] = target: Factor XIa; assay: as above
# [10] = target: Tissue Factor VIIa; assay: as above
# [11] = target: bovine pancreatic kallikrein (bovine); assay: enzyme inhibition kinetics; first preparation of bikunin (7-64)
# [12] = target: bovine trypsin (bovine) (UniProt P00760); remark: listed apart in the source
# [13] = target: human neutrophil elastase (human, UniProt P08246); assay: enzyme inhibition kinetics; first preparation of bikunin (7-64)
molecule,measurement,setting,value
synthetic placental bikunin (7-64),Ki,[1],> 300 nM
recombinant placental bikunin (102-159) expressed in yeast SC101 (construct #1),inhibition of trypsin by yeast culture supernatant (applysate),[2],82%
synthetic placental bikunin (102-159),Ki,[3],15 nM
same,Ki,[4],15 nM
same,"trypsin inhibitory activity, specific activity (U/mg) of the purified refolded peptide",[5],300000 U/mg
B1,inhibition of trypsin by yeast culture supernatant (applysate),[2],25%
B2,trypsin inhibitory activity (Units/OD 280) after Superdex 75,[6],24500 Units/OD 280
B3,"trypsin inhibitory activity, specific activity (U/OD) after C18 reverse-phase",[7],72200 U/OD
same,Ki,[8],0.12 nM
same,Ki,[9],3 nM
same,Ki,[10],800 nM
B4,inhibition of trypsin by yeast culture supernatant (applysate),[2],93%
B5,Ki,[11],0.4 nM
same,"trypsin inhibitory activity, specific activity (U/mg) of the purified refolded peptide",[12],294000 U/mg
same,Ki,[13],> 100 nM
